Data on three molecules can be found in paper doi:10.1101/2024.05.08.592561 (bioRxiv, 2024).

What is called stoichiometry N is the number of molecules, sites or subunits per partner or assembly. In general, Kd refers to the constant that tells how readily two partners part at equilibrium. Read a low Kd as higher affinity.

The series “mass photometry” deals with the molecule itself. Briefly: mass photometry.
A further series concerns the target T1, ParT (Streptomyces coelicolor A3(2), plasmid …, UniProt Q8VWE5 1-325).
T1 sequence: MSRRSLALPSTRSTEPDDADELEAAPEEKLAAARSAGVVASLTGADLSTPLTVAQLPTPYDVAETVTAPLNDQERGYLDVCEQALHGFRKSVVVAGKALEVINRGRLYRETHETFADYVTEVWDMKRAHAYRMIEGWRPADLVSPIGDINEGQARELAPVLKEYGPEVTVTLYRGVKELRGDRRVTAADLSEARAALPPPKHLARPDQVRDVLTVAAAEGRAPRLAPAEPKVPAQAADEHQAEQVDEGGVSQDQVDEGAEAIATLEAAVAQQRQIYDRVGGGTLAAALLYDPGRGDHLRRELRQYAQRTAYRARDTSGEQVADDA
Kind of series: BLI. (Biolayer interferometry detects binding as a change in optical thickness at a sensor tip.)

B1: ParT-His6 (wild type) (natural protein)
chain: MSRRSLALPSTRSTEPDDADELEAAPEEKLAAARSAGVVASLTGADLSTPLTVAQLPTPYDVAETVTAPLNDQERGYLDVCEQALHGFRKSVVVAGKALEVINRGRLYRETHETFADYVTEVWDMKRAHAYRMIEGWRPADLVSPIGDINEGQARELAPVLKEYGPEVTVTLYRGVKELRGDRRVTAADLSEARAALPPPKHLARPDQVRDVLTVAAAEGRAPRLAPAEPKVPAQAADEHQAEQVDEGGVSQDQVDEGAEAIATLEAAVAQQRQIYDRVGGGTLAAALLYDPGRGDHLRRELRQYAQRTAYRARDTSGEQVADDA
As for B1, in the series “mass photometry”, the “stoichiometry N” value was 2.

B2: 40-bp scrambled parS duplex (dsDNA)
DNA 1: ATCGGGCACCTTAGGGCAATCGTAAGTTCGGCGCACGACC
DNA 2: GGTCGTGCGCCGAACTTACGATTGCCCTAAGGTGCCCGAT
As to B2, in the series with ParT, the binding result is “no binding”.

B3: 40-bp parS duplex (dsDNA)
DNA 1: GGCCGACCTCGTGTCTCCAATTGGAGACATCAACGAGGGC
DNA 2: GCCCTCGTTGATGTCTCCAATTGGAGACACGAGGTCGGCC
In the series with ParT, B3 displayed a dissociation constant Kd of 680 ± 200 nM.
